Consider 94 variants from the supplement of paper PMC10567573.

B1: TEKT4 (parent)
chain: YARYHQAFADRDQSERQRHESQQL
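Note: lentivirally expressed fusions sorted by FACS into six bins by GFP to DsRed ratio, PSI derived from sequencing read proportions per bin multiplied by bin number.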

This data set covers variants of B1. Kind of data set: protein stability index of a GFP-peptide fusion (GPS, HEK-293T) (PSI 1-6); higher = more stable. Conditions: c terminus: a fixed tail appended.
In the case of WARYHQAFADRDQSERQRHESQQL [Y1W], the protein stability index turned out to be 3.69.

In the case of HARYHQAFADRDQSERQRHESQQL [Y1H], the protein stability index stood at 4.54.

As to AARYHQAFADRDQSERQRHESQQL [Y1A], the protein stability index turned out to be 3.9.

In the case of SARYHQAFADRDQSERQRHESQQL [Y1S], the protein stability index was 4.87.

Consider PARYHQAFADRDQSERQRHESQQL [Y1P], for which the protein stability index stood at 5.02.

Take KARYHQAFADRDQSERQRHESQQL [Y1K]: the protein stability index amounted to 4.76.

Take GARYHQAFADRDQSERQRHESQQL [Y1G]: the protein stability index was 5.11.

Take DARYHQAFADRDQSERQRHESQQL [Y1D]: the protein stability index came out at 5.23.

Regarding VARYHQAFADRDQSERQRHESQQL [Y1V], the protein stability index turned out to be 4.91.

On to CARYHQAFADRDQSERQRHESQQL [Y1C], for which the protein stability index amounted to 3.46.

As for QARYHQAFADRDQSERQRHESQQL [Y1Q], the protein stability index is 4.76.

Regarding TARYHQAFADRDQSERQRHESQQL [Y1T], the protein stability index was determined as 4.62.

As to LARYHQAFADRDQSERQRHESQQL [Y1L], the protein stability index is 4.55.

Turning to FARYHQAFADRDQSERQRHESQQL [Y1F], the protein stability index is 2.07.

EARYHQAFADRDQSERQRHESQQL [Y1E]: the protein stability index was found to be 5.

MARYHQAFADRDQSERQRHESQQL [Y1M]: the protein stability index was 4.44.

Turning to YARPHQAFADRDQSERQRHESQQL [Y4P], the protein stability index was 4.

Consider YARQHQAFADRDQSERQRHESQQL [Y4Q], for which the protein stability index came out at 3.85.

On to YARVHQAFADRDQSERQRHESQQL [Y4V], for which the protein stability index amounted to 3.51.

Take YARIHQAFADRDQSERQRHESQQL [Y4I]: the protein stability index is 3.32.

As for YARCHQAFADRDQSERQRHESQQL [Y4C], the protein stability index amounted to 2.39.

As to YARLHQAFADRDQSERQRHESQQL [Y4L], the protein stability index amounted to 2.92.

In the case of YARSHQAFADRDQSERQRHESQQL [Y4S], the protein stability index came to 3.44.

YARWHQAFADRDQSERQRHESQQL [Y4W]: the protein stability index turned out to be 1.6.

YARMHQAFADRDQSERQRHESQQL [Y4M]: the protein stability index was determined as 3.21.

Regarding YARRHQAFADRDQSERQRHESQQL [Y4R], the protein stability index came out at 3.81.

Take YARFHQAFADRDQSERQRHESQQL [Y4F]: the protein stability index worked out at 2.12.

In the case of YARTHQAFADRDQSERQRHESQQL [Y4T], the protein stability index is 2.8.

With YARAHQAFADRDQSERQRHESQQL [Y4A], the protein stability index was 3.28.

YARDHQAFADRDQSERQRHESQQL [Y4D]: the protein stability index worked out at 3.46.

With YAREHQAFADRDQSERQRHESQQL [Y4E], the protein stability index is 4.1.

Consider YARKHQAFADRDQSERQRHESQQL [Y4K], for which the protein stability index was 3.78.

Regarding YARGHQAFADRDQSERQRHESQQL [Y4G], the protein stability index came to 3.08.

Turning to YARHHQAFADRDQSERQRHESQQL [Y4H], the protein stability index came out at 2.36.

Take YARNHQAFADRDQSERQRHESQQL [Y4N]: the protein stability index stood at 2.99.

With YARYHQAFACRDQSERQRHESQQL [D10C], the protein stability index is 2.36.

In the case of YARYHQAFAFRDQSERQRHESQQL [D10F], the protein stability index amounted to 1.99.

For YARYHQAFAARDQSERQRHESQQL [D10A], the protein stability index is 1.8.

YARYHQASADRDQSERQRHESQQL [F8S]: the protein stability index amounted to 3.86.

As to YARYHQAQADRDQSERQRHESQQL [F8Q], the protein stability index turned out to be 4.

Regarding YARYHQALADRDQSERQRHESQQL [F8L], the protein stability index came out at 4.72.

Consider YARYHQAHADRDQSERQRHESQQL [F8H], for which the protein stability index was found to be 4.58.

YARYHQARADRDQSERQRHESQQL [F8R]: the protein stability index was 3.73.

As to YARYHQAEADRDQSERQRHESQQL [F8E], the protein stability index stood at 4.14.

As for YARYHQANADRDQSERQRHESQQL [F8N], the protein stability index is 4.61.

In the case of YARYHQAMADRDQSERQRHESQQL [F8M], the protein stability index worked out at 3.92.

As to YARYHQAWADRDQSERQRHESQQL [F8W], the protein stability index turned out to be 1.4.

Take YARYHQAIADRDQSERQRHESQQL [F8I]: the protein stability index was 4.31.

For YARYHQAYADRDQSERQRHESQQL [F8Y], the protein stability index turned out to be 2.95.

For YARYHQATADRDQSERQRHESQQL [F8T], the protein stability index was found to be 3.66.

Turning to YARYHQADADRDQSERQRHESQQL [F8D], the protein stability index was 4.63.

Regarding YARYHQAGADRDQSERQRHESQQL [F8G], the protein stability index came out at 3.83.

On to YARYHQAPADRDQSERQRHESQQL [F8P], for which the protein stability index was determined as 4.75.

For the variant YARYHQAAADRDQSERQRHESQQL [F8A], the protein stability index stood at 4.75.

As to YARYHQAKADRDQSERQRHESQQL [F8K], the protein stability index turned out to be 4.01.

In the case of YARYHQACADRDQSERQRHESQQL [F8C], the protein stability index came to 3.97.

YARYHQAVADRDQSERQRHESQQL [F8V]: the protein stability index worked out at 3.92.

On to YARYHQTFADRDQSERQRHESQQL [A7T], for which the protein stability index stood at 3.48.

As for YARYHQHFADRDQSERQRHESQQL [A7H], the protein stability index is 2.2.

Regarding YARYHQVFADRDQSERQRHESQQL [A7V], the protein stability index came to 2.06.

For the variant YARYHQCFADRDQSERQRHESQQL [A7C], the protein stability index came out at 2.88.

For the variant YARYHQRFADRDQSERQRHESQQL [A7R], the protein stability index worked out at 3.5.

Take YARYHQKFADRDQSERQRHESQQL [A7K]: the protein stability index came out at 3.25.

As to YARYHQPFADRDQSERQRHESQQL [A7P], the protein stability index was found to be 3.56.

On to YARYHQSFADRDQSERQRHESQQL [A7S], for which the protein stability index came to 3.2.

For the variant YARYHQGFADRDQSERQRHESQQL [A7G], the protein stability index was determined as 3.18.

YARYHQYFADRDQSERQRHESQQL [A7Y]: the protein stability index came to 1.69.

YARYHQFFADRDQSERQRHESQQL [A7F]: the protein stability index worked out at 2.99.

YARYHQQFADRDQSERQRHESQQL [A7Q]: the protein stability index turned out to be 3.03.

Turning to YARYHQNFADRDQSERQRHESQQL [A7N], the protein stability index worked out at 3.07.

Take YARYHQDFADRDQSERQRHESQQL [A7D]: the protein stability index amounted to 3.7.

Regarding YARYHQLFADRDQSERQRHESQQL [A7L], the protein stability index was 3.3.

Turning to YARYHQEFADRDQSERQRHESQQL [A7E], the protein stability index came out at 3.72.

As for YARYHQIFADRDQSERQRHESQQL [A7I], the protein stability index came out at 1.81.

In the case of YARYHQWFADRDQSERQRHESQQL [A7W], the protein stability index turned out to be 2.02.

With YARYEQAFADRDQSERQRHESQQL [H5E], the protein stability index is 4.54.

Regarding YARYVQAFADRDQSERQRHESQQL [H5V], the protein stability index turned out to be 2.87.

With YARYTQAFADRDQSERQRHESQQL [H5T], the protein stability index came out at 3.6.

On to YARYDQAFADRDQSERQRHESQQL [H5D], for which the protein stability index amounted to 4.57.

In the case of YARYIQAFADRDQSERQRHESQQL [H5I], the protein stability index is 3.29.

YARYRQAFADRDQSERQRHESQQL [H5R]: the protein stability index came out at 3.

For YARYFQAFADRDQSERQRHESQQL [H5F], the protein stability index came out at 2.5.

For the variant YARYSQAFADRDQSERQRHESQQL [H5S], the protein stability index worked out at 2.16.

YARYQQAFADRDQSERQRHESQQL [H5Q]: the protein stability index was 2.98.

Turning to YARYPQAFADRDQSERQRHESQQL [H5P], the protein stability index came out at 2.98.

Regarding YARYGQAFADRDQSERQRHESQQL [H5G], the protein stability index amounted to 1.44.

In the case of YARYYQAFADRDQSERQRHESQQL [H5Y], the protein stability index turned out to be 2.6.

For YARYCQAFADRDQSERQRHESQQL [H5C], the protein stability index was 2.39.

With YARYLQAFADRDQSERQRHESQQL [H5L], the protein stability index stood at 3.47.

For the variant YARYKQAFADRDQSERQRHESQQL [H5K], the protein stability index worked out at 2.88.

As to YARYMQAFADRDQSERQRHESQQL [H5M], the protein stability index was 3.43.

Turning to YARYNQAFADRDQSERQRHESQQL [H5N], the protein stability index came out at 2.3.

In the case of YARYWQAFADRDQSERQRHESQQL [H5W], the protein stability index came out at 3.19.

Consider YARYAQAFADRDQSERQRHESQQL [H5A], for which the protein stability index was found to be 1.91.
